Positions count from the first letter of the chain named. In names and notes the source's numbering stands.
B1: CDB 694: C. elegans CLK-1 variant, mutation E148K (protein, UniProt P48376 9-187, looked up, variant E148K)
NADPH-dependent …: AHTAASRQALIEKIIRVDHAGELGADRIYAGQLAVLQGSSVGSVIKKMWDEEKEHLDTMERLAAKHNVPHTVFSPVFSVAAYALGVGSALLGKEGAMACTIAVEELIGQHYNDQLKELLADDPETHKELLKILTRLRDEKLHHHDTGVEHDGMKAPAYSALKWIIQTGCKGAIAIAEKI
B2: CDB 715: C. elegans CLK-1 variant, mutation H151A (protein, UniProt P48376 9-187, looked up, variant H151A)
NADPH-dependent …: B1 NADPH-dependent … with K140E, H143A
B3: CDB 709: C. elegans CLK-1 variant, mutation Q174A (protein, UniProt P48376 9-187, looked up, variant Q174A)
NADPH-dependent …: B1 NADPH-dependent … with K140E, Q166A
B4: CDB 698: C. elegans CLK-1 variant, mutation I115H (protein, UniProt P48376 9-187, looked up, variant I115H)
NADPH-dependent …: B1 NADPH-dependent … with I107H, K140E
B5: CDB 711: C. elegans CLK-1 variant, mutation S51P (protein, UniProt P48376 9-187, looked up, variant S51P)
NADPH-dependent …: B1 NADPH-dependent … with S43P, K140E
B6: CDB 710: C. elegans CLK-1 variant, mutation Y90G (protein, UniProt P48376 9-187, looked up, variant Y90G)
NADPH-dependent …: B1 NADPH-dependent … with Y82G, K140E
B7: CDB 689: C. elegans CLK-1 variant, mutation C107A (protein, UniProt P48376 9-187, looked up, variant C107A)
NADPH-dependent …: B1 NADPH-dependent … with C99A, K140E
B8: CDB 690: C. elegans CLK-1 variant, mutation C177A (protein, UniProt P48376 9-187, looked up, variant C177A)
NADPH-dependent …: B1 NADPH-dependent … with K140E, C169A
B9: CDB 700: C. elegans CLK-1 variant, mutation C107A/C177A (protein, UniProt P48376 9-187, looked up, variant C107A C177A)
NADPH-dependent …: B1 NADPH-dependent … with C99A, K140E, C169A
B10: CDB 728: C. elegans CLK-1 variant, mutation E112A (protein, UniProt P48376 9-187, looked up, variant E112A)
NADPH-dependent …: B1 NADPH-dependent … with E104A, K140E
B11: CDB 723: C. elegans CLK-1 variant, mutation E148K/L149N (protein, UniProt P48376 9-187, looked up, variant E148K L149N)
NADPH-dependent …: B1 NADPH-dependent … with L141N
B12: CDB 724: C. elegans CLK-1 variant, mutation E62L (protein, UniProt P48376 9-187, looked up, variant E62L)
NADPH-dependent …: B1 NADPH-dependent … with E54L, K140E
B13: CDB 725: C. elegans CLK-1 variant, mutation E147A/H151Q, less active than wild type (protein, UniProt P48376 9-187, looked up, variant E147A H151Q)
NADPH-dependent …: B1 NADPH-dependent … with E139A, K140E, H143Q
B14: CDB 726: C. elegans CLK-1 variant, mutation G32D (protein, UniProt P48376 9-187, looked up, variant G32D)
NADPH-dependent …: B1 NADPH-dependent … with G24D, K140E
B15: CDB 720: C. elegans CLK-1 variant, mutation E30A (protein, UniProt P48376 9-187, looked up, variant E30A)
NADPH-dependent …: B1 NADPH-dependent … with E22A, K140E
B16: CDB 721: C. elegans CLK-1 variant, mutation Y37A (protein, UniProt P48376 9-187, looked up, variant Y37A)
NADPH-dependent …: B1 NADPH-dependent … with Y29A, K140E
B17: CDB 719: C. elegans CLK-1 variant, mutation H63A (protein, UniProt P48376 9-187, looked up, variant H63A)
NADPH-dependent …: B1 NADPH-dependent … with H55A, K140E
B18: CDB 716: C. elegans CLK-1 variant, mutation H118A (protein, UniProt P48376 9-187, looked up, variant H118A)
NADPH-dependent …: B1 NADPH-dependent … with H110A, K140E
B19: Saccharomyces pombe coq7: yeast orthologue of clk-1 (protein, UniProt O74826 28-216, looked up)
5-demethoxyubiquinone …: ISMGRKELSEKDSNILDSVIRVDQAGELGANQIYKGQHFILQFTDPKVAPTIQHMWDQEKYHLATFDNYVLKNRVRPTFLRPFWDIAGFALGAGTALLGTKAAMACTEAVETVIGGHYNDQLRETAHLENKAPEFKEIRSHLAEFRDDELEHLNTAVEGWNAKEAPAHALLTNAIQMGCKAAIWMCKRF

system: E. coli JF496 (ubiF411); assay: JF496 complementation (growth rescue) assay; type: cell-based; conditions: C. elegans CLK-1 variants expressed in JF496; growth rate relative to wild type CLK-1
Text: JF496 is useful for complementation assays using eukaryotic clk-1. As with all other ubi mutants, JF496 has a weak growth in liquid culture, and cannot use succinate as a unique carbon source. These characteristics were used to develop a gain-of-function assay, where JF496 was transformed with a eukaryotic clk-1 (here from C. elegans) and then wild-type growth was identified. Transgenic E. coli ubiF (Kwon et al., 2000 FEMS Microbiol Lett, 186, 157–161), and clk-1 from proteobacteria (Stenmark et al., 2001 J Biol Chem, 276, 33297–33300) have been tested in JF496.
Growth conditions—For complementation assays, plasmids are freshly transformed by electroporation into E. coli JF496 ubiF(DE3) and grown overnight at 37° C. in 5 mL LB with 50 μg/mL ampicillin. The cultures are diluted 1/10 and OD600 measured. A bacterial volume corresponding to an OD600 of 0.03 in 5 mL is taken, centrifuged and resuspended in 100 μl of M9 medium. It is then added into 5 mL M9 containing 1 mM MgSO4, 20 μM CaCl2, 0.5 μg/mL thiamine, 0.12% casamino acids, 40 μg/mL D-L-methionine, 100 μg/mL L-asparagine, trace metals and 50 μg/mL ampicillin. This medium is supplemented with 0.5% glucose or 0.5% succinate. E. coli JF496 is grown at 37° C. for 8 hours. Samples (700-μL) are taken at 2-hour intervals and the OD600 is measured in order to determine the growth rate.
Growth conditions—as described above in Section 6.1
A selection of CLK-1 variants were constructed by site-directed mutagenesis and cloned into the JF496 system to assess their enzymatic activity relative to the wild type. The respective strains of JF496-clk-1 variants were cultured as described and the growth rate of each were measured. The results as shown in Table 4 indicate that certain residues and regions are not tolerant of amino acid substitution (amino acid substitution is indicated by one-letter codes).

Q: For B1, which “Activity in JF496 system” value is on record?
A: Its value is “Inactive”.

Q: For B2, which “Activity in JF496 system” value is on record?
A: The value was “Inactive”.

Q: Which “Activity in JF496 system” value does the source give for B3 here?
A: Its value is “Active”.

Q: Which “Activity in JF496 system” value does the source give for B4 here?
A: The value was “Inactive”.

Q: For B5, which “Activity in JF496 system” value is on record?
A: Its value is “Active”.

Q: With B6 as the molecule, how does the “Activity in JF496 system” value read?
A: Its value is “Active”.

Q: With B7 as the molecule, how does the “Activity in JF496 system” value read?
A: Its value is “Active”.

Q: For B8, which “Activity in JF496 system” value is on record?
A: The value was “Active”.

Q: Which “Activity in JF496 system” value does the source give for B9 here?
A: The value was “Active”.

Q: Which “Activity in JF496 system” value does the source give for B10 here?
A: The value was “Inactive”.

Q: For B11, which “Activity in JF496 system” value is on record?
A: The value was “Inactive”.

Q: With B12 as the molecule, how does the “Activity in JF496 system” value read?
A: The value was “Active”.

Q: Which “Activity in JF496 system” value does the source give for B13 here?
A: Its value is “Partially active”.

Q: For B14, which “Activity in JF496 system” value is on record?
A: Its value is “Inactive”.

Q: With B15 as the molecule, how does the “Activity in JF496 system” value read?
A: The value was “Inactive”.

Q: With B16 as the molecule, how does the “Activity in JF496 system” value read?
A: The value was “Active”.

Q: For B17, which “Activity in JF496 system” value is on record?
A: The value was “Inactive”.

Q: For B18, which “Activity in JF496 system” value is on record?
A: Its value is “Inactive”.

system: E. coli JF496 (ubiF411); assay: not given; conditions: yeast orthologue of clk-1; cited from earlier work

Q: With B19 as the molecule, how does the “complementation of UbiF-deficiency in JF496 bacteria” value read?
A: The value was “cannot complement”.

Source: US7132274B2, “Method for identifying modulators of CLK-1 and UbiF activity” (priority 2003, dated 2006)
